Experimental data published in the DeepSol protein solubility set.

Assay: soluble on expression in E. coli; label from the status in PepcDB or PDB records

| Sequence | soluble on expression in E. coli |
| --- | --- |
| MGGSHHHHHHGMASTQLFLWEYGDLHLFGPNQRPAPCYDPCEAVLVESIPEGLDFPNASTGNPSTSQAWLGLLAGAHSSLDIASFYWTLTNNDTHTQEPSAQQGEEVLRQLQTLAPKGVNVRIAVSKPSGPQPQADLQALLQSGAQVRMVDMQKLTHGVLHTKFWVVDQTHFYLGSANMDWRSLTQVKELGVVMYNCSCLARDLTKIFEAYWFLGQAGSSIPSTWPRFYDTRYNQETPMEICLNGTPALAYLASAPPPLCPSGRTPDLKALLNVVDNARSFIYVAVMNYLPTLEFSHPHRFWPAIDDGLRRATYERGVKVRLLISCWGHSEPSMRAFLLSLAALRDNHTHSDIQVKLFVVPADEAQARIPYARVNHNKYMVTERATYIGTSNWSGNYFTETAGTSLLVTQNGRGGLRSQLEAIFLRDWDSPYIHDLDTSADSVGNACRLL | not soluble |
| MGHHHHHAYTLSKSGKEKEEVDEILEEEAEVDELKSPESVVQLLHIDPIEFEFGYGLIPLADANQGGDLLDRIVMIRRQLALELGLVIPVVRIRDNIALQPNEYRLKIKGNEVAKGELLLDHYLAMSPTPEDDLIEGIETVEPSFGLPAKWISEAVKDEADMLGYTVVDPASVVSTHITEKIKQHAHELIGRQETKQLIDHLKESYPVLVEEVTPNPLSVGDIQKVLAKLLKEKVSIRNLVTIFETLADYGKLTTDSDLLTEYTRQALAKQITAQFAKENEVLKVVTCSGRVEKAIADGVQQTEHGNYLSLEPDISESIVRSVAKEAEQLSLRQETAILLCSPPVRMYVKQLLERYFPDLPVLSYNELEANVEVQSIGVVDI | soluble |
| MGHHHHHHENLYFQGMKKEKVEQILAEFQLQEEDLKKVMRRMQKEMDRGLRLETHEEASVKMLPTYVRSTPEGSEVGDFLSLDLGGTNFRVMLVKVGEGEEGQWSVKTKHQMYSIPEDAMTGTAEMLFDYISECISDFLDKHQMKHKKLPLGFTFSFPVRHEDIDKGILLNWTKGFKASGAEGNNVVGLLRDAIKRRGDFEMDVVAMVNDTVATMISCYYEDHQCEVGMIVGTGCNACYMEEMQNVELVEGDEGRMCVNTEWGAFGDSGELDEFLLEYDRLVDESSANPGQQLYEKLIGGKYMGELVRLVLLRLVDENLLFHGEASEQLRTRGAFETRFVSQVESDTGDRKQIYNILSTLGLRPSTTDCDIVRRACESVSTRAAHMCSAGLAGVINRMRESRSEDVMRITVGVDGSVYKLHPSFKERFHASVRRLTPSCEITFIESEEGSGRGAALVSAVACKKACMLGQ | soluble |
| MGHHHHHHGGHMSLPKFSPCLWFNTQAEEAANFYTTIFEKGAILSKTNYVNEEHQPQGTSLMTIEFTLANQTIIGLNGGPEFSFTPASSFFVECTTLPQTETLWKNLTADGQILMPFGEYPFSPLYGWVVDKFGVSWQVSFSGKEQTIVPTFMFANEKYGEAAKALSEWLAIFGPGEIIEKVEYEDGNIAQALFTLQEQPFRVMDARDKHDFDFTMAFSIYIDCENQEEIDRLWQQVTAKGKEWPCGWMEDQFGVSWQTGNPELKRYLSDSNPARANEVTKKLYQMKKIDLNQLKEVYDKYNHEGGS | soluble |
| MGHHHHHHGGHMSLQRGCDGCKQNQSREPATIDGFMPKAQESIMGQQKQRNRRWVLASRPHGAPVPENFRLEEDDVATPGEGQVLLRTVYLSLDPYMRGRMSDEPSYSPPVDIGGVMVGGTVSRVVESNHPDYQSGDWVLGYSGWQDYDISSGDDLVKLGDHPQNPSWSLGVLGMPGFTAYMGLLDIGQPKEGETLVVAAATGPVGATVGQIGKLKGCRVVGVAGGAEKCRHATEVLGFDVCLDHHADDFAEQLAKACPKGIDIYYENVGGKVFDAVLPLLNTSARIPVCGLVSSYNATELPPGPDRLPLLMATVLKKRIRLQGFIIAQDYGHRIHEFQREMGQWVKEDKIHYREEITDGLENAPQTFIGLLKGKNFGKVVIRVAGDDEGGS | soluble |
| MGHHHHHHGGHMSLSNEVERVYPRLLDFVRKKYVSKNLLRVTLTGEDLIGFPEDQNGSHIKVFFPNQASGILQLPIREGDKVIWPEHKPVPRAYTVRQYRAQSNELDIDFVVHGEGTPGGGWALKAQTGSQLGLIGPGGPDPLIEPADWHIMAGDLSAVPAISAILEKMPSQAKGYVFLEVDDIEDKHDISHPEQMVIKWLVRDPNQAQPVLAMAIEQLPVPQGAESLSAFVAGENESVIACRKILRNEYRIARDKIYAIPYWKRGKNEEAYHEERHVVMDEEFEGGS | soluble |
